Patent publication US20220089698A1

What was measured:
[1] = biological target: HIV-1 envelope glycoprotein (gp120) of virus 92US727 (HIV-1); assay: cell-based or functional assay
[2] = biological target: HIV-1 envelope glycoprotein (gp120) of virus 7141 (HIV-1); assay: cell-based or functional assay
[3] = biological target: HIV-1 envelope glycoprotein (gp120) of virus VS001 (HIV-1); assay: cell-based or functional assay
BSA = BSA (UniProt P02769); assay: single-point ELISA

Row | Binder | Neutralization IC50 [1] [µg/mL] | Neutralization IC50 [2] [µg/mL] | Neutralization IC50 [3] [µg/mL] | ELISA (A450) (BSA)
1 | 1.1.78-1 (antibody, human IgG1, kappa, V domains shown) VH: QVQLLQSGAAVTKPGASVRVSCEASGYNIRDYFIHWWRQAPGQGLQWVGWINPKTGQPNNPRQFQGRVSLTRHASWDFDTFSFYMDLKALRSDDTAVYFCARQRSDYWDFDVWGSGTQVTVSS VL: DIQMTQSPSSLSASVGDTATITCQANGYLNWYQQRRGKAPKLLIYDGSKLERGVPSRFSGRRWGQEYHLTINNLQPEDIATYFCQVYEFFGPGTRLDLKR | > 50 | 29.5 | 3.3 | –
2 | 3.1.17-1 (antibody, human IgG1, kappa, V domains shown) VH: QVQLLQSGAAVTKPGASVRVSCEASGYNIRDYFIHWWRQAPGQGLQWVGWINPKTGQPNNPRQFQGRVSLTRHASWDFDTFSFYMDLKALRSDDTAVYFCARQRSDYWDFDVWGSGTQVTVSS VL: DIQMTQSPSSLSARVGDTATITCQANGYLNWYQQRRGKAPKLLIYDGSKLERGVPARFSGRRWGQEYHLTINNLQPEDVATYFCQVYEFFGPGTRLDLKR | > 50 | 25.5 | 2.21 | –
3 | 1.12.17-1 (antibody, human IgG1, kappa, V domains shown) VH: QVQLLQSGAAVTKPGASVRVSCEASGYNIRDYFIHWVRQAPGQGLQWVGWINPKTGQPNNPRQFQGRVSLTRHASWDFDTFSFYMDLKALRSDDTAVYFCARQRSDYWDFDVWGSGTQVTVSS VL: DIQMTQSPSSLSASVGDTVTITCQANGYLNWYQQRRGKAPKLLIYDGSKLERGVPSRFSGRRWGQEYNLTINNLQPEDIATYFCQVYEFFGPGTRLDLKR | – | – | – | 0.06
4 | 1.13.17-1 (antibody, human IgG1, kappa, V domains shown) VH: QVQLLQSGAAVTKPGASVRVSCEASGYNIRDYFMHWVRQAPGQGLQWVGWINPKTGQPNNPRQFQGRVSLTRHASWDFDTFSFYMDLKALRSDDTAVYFCARQRSDYWDFDVWGSGTQVTVSS VL: DIQMTQSPSSLSASVGDTVTITCQANGYLNWYQQRRGKAPKLLIYDGSKLERGVPSRFSGRRWGQEYNLTINNLQPEDIATYFCQVYEFFGPGTRLDLKR | – | – | – | 0.06
5 | 3.1.18-1 (antibody, human IgG1, kappa, V domains shown) VH: QVQLLQSGAAVTKPGASVRVSCEASGYNIRDYFIHWWRQAPGQGLQWVGWINPKTGQPNNPRQFQGRVSLTRHASWDFDTFSFYMDLKALRSDDTAVYFCARQRSDYWDFDVWGSGTQVTVSS VL: DIQMTQSPSSLSARVGDRATITCQANGYLNWYQQRRGKAPKLLIYDGSKLERGVPARFSGSRWGQEYHLTISSLQPEDVATYFCQVYEFFGPGTRLDLKR | > 9.8 | > 9.8 | 3.52 | –
6 | 2.2.18-1 (antibody, human IgG1, kappa, V domains shown) VH: QVHLSQSGAAVTKPGASVRVSCEASGYKIRDHFIHWWRQAPGQGLQWVGWINPKTGQPNNPRQFQGRVSLTRHASWDFDTFSFYMDLKAVRSDDTAIYFCARQRSDYWDFDVWGSGTQVTVSS VL: DIQMTQSPSSLSARVGDRATITCQANGYLNWYQQRRGKAPKLLIYDGSKLERGVPARFSGSRWGQEYHLTISSLQPEDVATYFCQVYEFFGPGTRLDLKR | > 34 | 5.04 | 2.51 | –
7 | 1.31.35-1 (antibody, human IgG1, kappa, V domains shown) VH: QVQLVQSGAEVTKPGASVRVSCEASGYNIRDYFIHWWRQAPGQGLQWVGWINPKTGQPNNPRQFQGRVSLTRHASWDFDTFSFYMDLKALRSDDTATYFCARQRSDYWDFDVWGSGTQVTVSS VL: DIQMTQSPSSLSASVGDRVTITCQANGYLNWYQQKPGKAPKLLIYDGSNLETGVPSRFSGSRWGQEYTLTISSLQPEDIATYFCQVYEFVGPGTNLDIKR | – | – | – | 0.06
8 | 1.1.102-1 (antibody, human IgG1, kappa, V domains shown) VH: QVQLLQSGAAVTKPGASVRVSCEASGYNIRDYFIHWWRQAPGQGLQWVGWINPKTGQPNNPRQFQGRVSLTRHASWDFDTFSFYMDLKALRSDDTAVYFCARQRSDYWDFDVWGSGTQVTVSS VL: DIQMTQSPSSLSASVGDRATITCQANGYLNWYQQRRGKAPKLLIYDGSKLERGVPSRFSGSRWGQEYHLTISSLQPEDIATYFCQVYEFFGPGTRLDLKR | > 50 | 22.7 | 3 | –
9 | 2.2.17-1 (antibody, human IgG1, kappa, V domains shown) VH: QVHLSQSGAAVTKPGASVRVSCEASGYKIRDHFIHWWRQAPGQGLQWVGWINPKTGQPNNPRQFQGRVSLTRHASWDFDTFSFYMDLKAVRSDDTAIYFCARQRSDYWDFDVWGSGTQVTVSS VL: DIQMTQSPSSLSARVGDTATITCQANGYLNWYQQRRGKAPKLLIYDGSKLERGVPARFSGRRWGQEYHLTINNLQPEDVATYFCQVYEFFGPGTRLDLKR | > 50 | 6.28 | 4.38 | –
10 | 1.32.35-1 (antibody, human IgG1, kappa, V domains shown) VH: QVQLVQSGAEVTKPGASVRVSCEASGYNIRDYFIHWWRQAPGQGLQWVGWINPKTGQPNNPRQFQGRVSLTRHASWDFDTFSFYMDLKALRSDDTAVYFCARQRTDYWDFDVWGSGTQVTVSS VL: DIQMTQSPSSLSASVGDRVTITCQANGYLNWYQQKPGKAPKLLIYDGSNLETGVPSRFSGSRWGQEYTLTISSLQPEDIATYFCQVYEFVGPGTNLDIKR | – | – | – | 0.06
11 | 1.14.17-1 (antibody, human IgG1, kappa, V domains shown) VH: QVQLLQSGAAVTKPGASVRVSCEASGYNIRDYFMHWVRQAPGQGLQWVGWINPKTGQPNNPRQFQGRVSLTRHASWDFDTFSAYMDLKALRSDDTAVYFCARQRSDYWDFDVWGSGTQVTVSS VL: DIQMTQSPSSLSASVGDTVTITCQANGYLNWYQQRRGKAPKLLIYDGSKLERGVPSRFSGRRWGQEYNLTINNLQPEDIATYFCQVYEFFGPGTRLDLKR | – | – | – | 0.1
12 | 2.3.18-1 (antibody, human IgG1, kappa, V domains shown) VH: QVHLSQSGAAVTKPGASVRVSCEASGYNIRDYFIHWWRQAPGQGLQWVGWINPKTGQPNNPRQFQGRVSLTRHASWDFDTFSFYMDLKAVRSDDTAIYFCARQRSDYWDFDVWGSGTQVTVSS VL: DIQMTQSPSSLSARVGDRATITCQANGYLNWYQQRRGKAPKLLIYDGSKLERGVPARFSGSRWGQEYHLTISSLQPEDVATYFCQVYEFFGPGTRLDLKR | > 23 | > 23 | 2.37 | –
13 | 1.33.35-1 (antibody, human IgG1, kappa, V domains shown) VH: QVQLVQSGAEVKKPGASVRVSCKASGYNIRDYFIHWWRQAPGQGLQWVGWINPKTGQPNNPRQFQGRVTLTRHASWDFDTFSFYMDLKALRSDDTATYFCARQRSDYWDFDVWGSGTQVTVSS VL: DIQMTQSPSSLSASVGDRVTITCQANGYLNWYQQKPGKAPKLLIYDGSNLETGVPSRFSGSRWGQEYTLTISSLQPEDIATYFCQVYEFVGPGTNLDIKR | – | – | – | 0.07
14 | 1.1.35-1 (antibody, human IgG1, kappa, V domains shown) VH: QVQLLQSGAAVTKPGASVRVSCEASGYNIRDYFIHWWRQAPGQGLQWVGWINPKTGQPNNPRQFQGRVSLTRHASWDFDTFSFYMDLKALRSDDTAVYFCARQRSDYWDFDVWGSGTQVTVSS VL: DIQMTQSPSSLSASVGDRVTITCQANGYLNWYQQKPGKAPKLLIYDGSNLETGVPSRFSGSRWGQEYTLTISSLQPEDIATYFCQVYEFVGPGTNLDIKR | – | – | – | 0.08
15 | 2.3.17-1 (antibody, human IgG1, kappa, V domains shown) VH: QVHLSQSGAAVTKPGASVRVSCEASGYNIRDYFIHWWRQAPGQGLQWVGWINPKTGQPNNPRQFQGRVSLTRHASWDFDTFSFYMDLKAVRSDDTAIYFCARQRSDYWDFDVWGSGTQVTVSS VL: DIQMTQSPSSLSARVGDTATITCQANGYLNWYQQRRGKAPKLLIYDGSKLERGVPARFSGRRWGQEYHLTINNLQPEDVATYFCQVYEFFGPGTRLDLKR | > 50 | 31.3 | 4.54 | –
